pyrene = pyrene fluorescent label
Target: Aβ42 fibers (Homo sapiens (Human), UniProt P05067 672-713)
Assay: pyrene excimer fluorescence (FIG. 11A legend)

Aβ42 fibers, sequence (P05067 672-713 limits assumed): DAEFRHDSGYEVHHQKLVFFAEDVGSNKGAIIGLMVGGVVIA

B1: Peptide probe specific for Aβ (SEQ ID NO:36) labeled at each terminus with pyrene (peptide)
peptide: pyrene-KLVFFAEDVGSNKGAIIGLM-pyrene
notes: also called Aβ peptide probe; dipyrene labeled peptide probe
- binding result: binds

From patent US20130108549A1 (ADLYFE, published 2013)
